Source: PMC10582461, “Self‐Aggregating Tau Fragments Recapitulate Pathologic Phenotypes and Neurotoxicity of Alzheimer's Disease in Mice” (Advanced Science, 2023)

Target: the molecule itself
Experiment: in vitro self-aggregation, non-reducing SDS-PAGE and immunoblot; tau-AC species alone (40-100 µM) in self-assembly buffer (10 mM HEPES pH 7.4, 100 mM NaCl, 1 mM DTT), 37 °C, shaking 250 rpm, no inducers; non-reducing SDS-PAGE, IB and CBB

B1: tau‐AC‐TQDVSK (tau‐AC with the PHF6 motif substituted with hydrophilic residues) (domain or fragment, human, UniProt P10636-8 306-378, looked up)
chain: TQDVSKPVDLSKVTSKCGSLGNIHHKPGGGQVEVKSEKLDFKDRVQSKIGSLDNITHVPGGGNKKIETHKLTF
notes: human tau residues 306-378 of 2N4R (441 residues) with 306VQIVYK311 changed to TQDVSK; numbers count on: 2N4R tau (441 residues); source: E. coli Rosetta 2 (DE3), pET28a, purified
binding result: binds
